Measurements reported in IntAct's records for PubMed 27189942.

B1: Rabankyrin-5 (Homo sapiens), Q9P2R3 (parent)
chain: MAEEEVAKLEKHLMLLRQEYVKLQKKLAETEKRCALLAAQANKESSSESFISRLLAIVADLYEQEQYSDLKIKVGDRHISAHKFVLAARSDSWSLANLSSTKELDLSDANPEVTMTMLRWIYTDELEFREDDVFLTELMKLANRFQLQLLRERCEKGVMSLVNVRNCIRFYQTAEELNASTLMNYCAEIIASHWDDLRKEDFSSMSAQLLYKMIKSKTEYPLHKAIKVEREDVVFLYLIEMDSQLPGKLNEADHNGDLALDLALSRRLESIATTLVSHKADVDMVDKSGWSLLHKGIQRGDLFAATFLIKNGAFVNAATLGAQETPLHLVALYSSKKHSADVMSEMAQIAEALLQAGANPNMQDSKGRTPLHVSIMAGNEYVFSQLLQCKQLDLELKDHEGSTALWLAVQHITVSSDQSVNPFEDVPVVNGTSFDENSFAARLIQRGSHTDAPDTATGNCLLQRAAGAGNEAAALFLATNGAHVNHRNKWGETPLHTACRHGLANLTAELLQQGANPNLQTEEALPLPKEAASLTSLADSVHLQTPLHMAIAYNHPDVVSVILEQKANALHATNNLQIIPDFSLKDSRDQTVLGLALWTGMHTIAAQLLGSGAAINDTMSDGQTLLHMAIQRQDSKSALFLLEHQADINVRTQDGETALQLAIRNQLPLVVDAICTRGADMSVPDEKGNPPLWLALANNLEDIASTLVRHGCDATCWGPGPGGCLQTLLHRAIDENNEPTACFLIRSGCDVNSPRQPGANGEGEEEARDGQTPLHLAASWGLEETVQCLLEFGANVNAQDAEGRTPIHVAISSQHGVIIQLLVSHPDIHLNVRDRQGLTPFACAMTFKNNKSAEAILKRESGAAEQVDNKGRNFLHVAVQNSDIESVLFLISVHANVNSRVQDASKLTPLHLAVQAGSEIIVRNLLLAGAKVNELTKHRQTALHLAAQQDLPTICSVLLENGVDFAAVDENGNNALHLAVMHGRLNNIRVLLTECTVDAEAFNLRGQSPLHILGQYGKENAAAIFDLFLECMPGYPLDKPDADGSTVLLLAYMKGNANLCRAIVRSGARLGVNNNQGVNIFNYQVATKQLLFRLLDMLSKEPPWCDGSYCYECTARFGVTTRKHHCRHCGRLLCHKCSTKEIPIIKFDLNKPVRVCNICFDVLTLGGVS
partner: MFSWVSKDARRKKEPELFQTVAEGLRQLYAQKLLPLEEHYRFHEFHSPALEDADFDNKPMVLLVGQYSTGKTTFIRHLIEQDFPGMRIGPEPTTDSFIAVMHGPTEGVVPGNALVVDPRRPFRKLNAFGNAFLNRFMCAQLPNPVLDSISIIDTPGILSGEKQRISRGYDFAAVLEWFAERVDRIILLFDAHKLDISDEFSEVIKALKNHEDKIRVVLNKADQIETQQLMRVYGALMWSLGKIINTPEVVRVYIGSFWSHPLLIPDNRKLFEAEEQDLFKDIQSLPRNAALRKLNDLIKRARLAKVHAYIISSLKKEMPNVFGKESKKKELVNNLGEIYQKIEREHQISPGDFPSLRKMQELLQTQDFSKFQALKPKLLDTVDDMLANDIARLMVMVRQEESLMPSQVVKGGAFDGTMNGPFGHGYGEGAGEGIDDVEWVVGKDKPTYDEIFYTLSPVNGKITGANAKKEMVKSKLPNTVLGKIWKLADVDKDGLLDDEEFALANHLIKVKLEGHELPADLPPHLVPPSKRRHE
B2: MICAL-like protein 1 (Homo sapiens), Q8N3F8 (parent)
chain: MAGPRGALLAWCRRQCEGYRGVEIRDLSSSFRDGLAFCAILHRHRPDLLDFDSLSKDNVFENNRLAFEVAEKELGIPALLDPNDMVSMSVPDCLSIMTYVSQYYNHFCSPGQAGVSPPRKGLAPCSPPSVAPTPVEPEDVAQGEELSSGSLSEQGTGQTPSSTCAACQQHVHLVQRYLADGRLYHRHCFRCRRCSSTLLPGAYENGPEEGTFVCAEHCARLGPGTRSGTRPGPFSQPKQQHQQQLAEDAKDVPGGGPSSSAPAGAEADGPKASPEARPQIPTKPRVPGKLQELASPPAGRPTPAPRKASESTTPAPPTPRPRSSLQQENLVEQAGSSSLVNGRLHELPVPKPRGTPKPSEGTPAPRKDPPWITLVQAEPKKKPAPLPPSSSPGPPSQDSRQVENGGTEEVAQPSPTASLESKPYNPFEEEEEDKEEEAPAAPSLATSPALGHPESTPKSLHPWYGITPTSSPKTKKRPAPRAPSASPLALHASRLSHSEPPSATPSPALSVESLSSESASQTAGAELLEPPAVPKSSSEPAVHAPGTPGNPVSLSTNSSLASSGELVEPRVEQMPQASPGLAPRTRGSSGPQPAKPCSGATPTPLLLVGDRSPVPSPGSSSPQLQVKSSCKENPFNRKPSPAASPATKKATKGSKPVRPPAPGHGFPLIKRKVQADQYIPEEDIHGEMDTIERRLDALEHRGVLLEEKLRGGLNEGREDDMLVDWFKLIHEKHLLVRRESELIYVFKQQNLEQRQADVEYELRCLLNKPEKDWTEEDRAREKVLMQELVTLIEQRNAIINCLDEDRQREEEEDKMLEAMIKKKEFQREAEPEGKKKGKFKTMKMLKLLGNKRDAKSKSPRDKS
partner: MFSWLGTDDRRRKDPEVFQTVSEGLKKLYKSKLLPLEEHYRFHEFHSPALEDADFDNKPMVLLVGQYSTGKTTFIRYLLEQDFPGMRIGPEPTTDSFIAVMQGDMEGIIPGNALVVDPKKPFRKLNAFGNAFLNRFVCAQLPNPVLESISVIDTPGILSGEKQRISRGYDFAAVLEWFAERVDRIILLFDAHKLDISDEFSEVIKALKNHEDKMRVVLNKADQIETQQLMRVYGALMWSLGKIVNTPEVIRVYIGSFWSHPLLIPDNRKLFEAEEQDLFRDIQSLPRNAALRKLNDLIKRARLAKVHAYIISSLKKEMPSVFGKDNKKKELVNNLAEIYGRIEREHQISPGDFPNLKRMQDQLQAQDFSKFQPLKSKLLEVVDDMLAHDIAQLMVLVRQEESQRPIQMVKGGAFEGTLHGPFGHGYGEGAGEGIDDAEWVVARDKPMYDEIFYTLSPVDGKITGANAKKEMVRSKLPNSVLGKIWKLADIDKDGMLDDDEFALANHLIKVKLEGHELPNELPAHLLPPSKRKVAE
B3: Rabankyrin-5 (Homo sapiens), Q9P2R3 (parent)
chain: B1 chain
partner: B2 partner
B4: MICAL-like protein 1 (Homo sapiens), Q8N3F8 (parent)
chain: B2 chain
partner: B1 partner
B5: EH domain-containing protein 3 (Homo sapiens), Q9NZN3 (parent)
chain: B2 partner
partner: B1 chain

Variants of: B1
Conditions: with ehd1_human EHD1, Q9H4M9

Row | Variant | effect of a mutation on the interaction
1 | S419P | disrupting interaction

Variants of: B2
Conditions: with ehd3_human EHD3, Q9NZN3

Row | Variant | effect of a mutation on the interaction
2 | E428A;E429A;E430A;E431A;E432A;D433A | disrupting interaction

Variants of: B3
Conditions: with ehd3_human EHD3, Q9NZN3

Row | Variant | effect of a mutation on the interaction
3 | V420Y | causing an interaction
4 | V420A | causing an interaction
5 | Q418K;S419P;V420Y | causing an interaction
6 | Q418K | causing an interaction

Variants of: B4
Conditions: with ehd1_human EHD1, Q9H4M9

Row | Variant | effect of a mutation on the interaction
7 | E429A;E430A;E431A;E432A;D433A | decreasing interaction
8 | E428A;E429A;E430A;E431A;E432A;D433A | disrupting interaction

Variants of: B5
Conditions: with anfy1_human ANKFY1, Q9P2R3

Row | Variant | effect of a mutation on the interaction
9 | N519A;E520D | causing an interaction

Variants of: B5
Conditions: with anfy1_human ANKFY1, Q9P2R3
Remark: another data set of the same source

Row | Variant | effect of a mutation on the interaction
10 | E520D | causing an interaction
11 | N519A | causing an interaction
